The results in this text go back to paper PMC5669500, “Scaffolding the cup-shaped double membrane in autophagy” (PLoS Computational Biology, 2017).

Substitutions are numbered along the chain they refer to. In names and notes the source's numbering stands.

This data set deals with the molecule itself. The data set is described as follows: SEC; ternary complex co-expressed in E. coli, captured on Ni-NTA by His6-Atg29, then Superose 6 10/300GL in 20 mM Tris pH 8, 200 mM NaCl, 0.1 mM TCEP; peak fractions analysed by SDS-PAGE.

B1: Atg17, wild type (natural protein, Saccharomyces cerevisiae, UniProt Q06410 1-417, looked up)
chain: MNEADVTKFVNNARKTLTDAQLLCSSANLRIVDIKKKLSSWQLSISKLNFLIVGLRQQGKFLYTILKEGIGTKLIQKQWNQAVLVVLVDEMKYWQYEITSKVQRLDGIVNELSISEKDDTDPSKLGDYISRDNVNLLNDKLKEVPVIERQIENIKLQYENMVRKVNKELIDTKLTDVTQKFQSKFGIDNLMETNVAEQFSRELTDLEKDLAEIMNSLTQHFDKTLLLQDKKIDNDEREELFKVVQGDDKELYNIFKTLHEVIDDVDKTILNLGQFLQAKIKEKTELHSEVSEIINDFNRNLEYLLIFKDISNLIDSFKNSCTQDIQTTKELCEFYDNFEESYGNLVLEAKRRKDVANRMKTILKDCEKQLQNLDAQDQEERQNFIAENGTYLPETIWPGKIDDFSSLYTLNYNVKNP
notes: Atg17, Saccharomyces cerevisiae; The Atg17 chain of m1; source: E. coli BL21 (DE3), co-expressed with Atg31 and His6-Atg29 from pST39, purified (Ni-NTA, Superose 6)
In the case of B1, the binding result is listed as “binds”.

B2: Atg17 mutant M2 (K318D/K329D/Y93E/W94E) (natural protein, Saccharomyces cerevisiae, UniProt Q06410 1-417, looked up)
chain: B1 chain with Y93E, W94E, K318D, K329D
notes: Atg17, Saccharomyces cerevisiae; The Atg17 chain of m3; source: E. coli BL21 (DE3), co-expressed with Atg31 and His6-Atg29 from pST39, purified (Ni-NTA, Superose 6)
With B2, the binding result is “binds”.

B3: Atg17 mutant M5 (K92D/L141D) (natural protein, Saccharomyces cerevisiae, UniProt Q06410 1-417, looked up)
chain: B1 chain with K92D, L141D
notes: Atg17, Saccharomyces cerevisiae; The Atg17 chain of m6; source: E. coli BL21 (DE3), co-expressed with Atg31 and His6-Atg29 from pST39, purified (Ni-NTA, Superose 6)
On to B3, for which the binding result is recorded as “binds”.

B4: Atg17 mutant M3 (K8D/R14D/K249D) (natural protein, Saccharomyces cerevisiae, UniProt Q06410 1-417, looked up)
chain: B1 chain with K8D, R14D, K249D
notes: Atg17, Saccharomyces cerevisiae; The Atg17 chain of m4; source: E. coli BL21 (DE3), co-expressed with Atg31 and His6-Atg29 from pST39, purified (Ni-NTA, Superose 6)
On to B4, for which the binding result is “binds”.

B5: Atg17 mutant M4 (K164D/K173D/R299D) (natural protein, Saccharomyces cerevisiae, UniProt Q06410 1-417, looked up)
chain: B1 chain with K164D, K173D, R299D
notes: Atg17, Saccharomyces cerevisiae; The Atg17 chain of m5; source: E. coli BL21 (DE3), co-expressed with Atg31 and His6-Atg29 from pST39, purified (Ni-NTA, Superose 6)
Regarding B5, the binding result was “binds”.

B6: Atg17 mutant M1 (K318D/Q326D/K329D) (natural protein, Saccharomyces cerevisiae, UniProt Q06410 1-417, looked up)
chain: B1 chain with K318D, Q326D, K329D
notes: Atg17, Saccharomyces cerevisiae; The Atg17 chain of m2; source: E. coli BL21 (DE3), co-expressed with Atg31 and His6-Atg29 from pST39, purified (Ni-NTA, Superose 6)
In the case of B6, the binding result is “binds”.
